In US20220242963A1, “B-CELL ACTIVATING CD73 ANTIBODIES” (CORVUS PHARMACEUTICALS, INC., priority 2018, published 2022):
Several values for one entry are separate records, joined by “and”; a condition that tells them apart may be missing. Identical values can stand only once.

How the values were obtained:
PBMC = assay: T cell proliferation and IFN-gamma secretion of healthy donor PBMC cultured with AMP; type: cell-based, human; conditions: CPI-006 at 500 nM, 3 mM AMP, anti-CD3 and anti-CD28, IL-2; FIGS. 1C-1D
Procedure: FIG. 1A provides a schematic of CD73 structure. […] Each symbol represents an independent donor.
MDA-MB-231 cells (e.g., available at ATCC® as HTB-26™) were incubated with a human IgG1 isotype control, CPI-006, CPX-016, or adenosine 5′-(α,β-methylene)diphosphate (also known as APCP, which is a small molecule inhibitor of CD73 enzymatic activity), prior to addition of 250 μM of adenosine monophosphate (AMP). Phosphate levels were measured in the cell culture supernatant using the Sensolyte Malachite Green assay kit. Peripheral blood mononuclear cells (PBMC) were isolated from healthy donors and labeled with CellTrace™ Violet (ThermoFisher Scientific) prior to culture with 1 μg/mL anti-CD3 and anti-CD28, 200 units/mL IL-2, 3 mM AMP and indicated treatments (CPI-006 at 500 nM; CPX-016 at 500 nM; human IgG1 isotype control at 890 nM). T cell proliferation was measured by Cell Trace Violet dilution and was defined by gating relative to unstimulated PBMC (FIG. 1C). IFN-gamma production was measured in cell culture supernatants by AlphaLISA (FIG. 1D). Results shown in FIGS. 1B-D illustrate that inhibition of CD73 activity has an agonistic effect on immunomodulatory activity.

CD73 = biological target: T1, CD73 (Homo sapiens, UniProt P21589); assay: Phase 1/1B clinical trial: CD73 receptor occupancy in peripheral blood by flow cytometry; type: in vivo; conditions: for sustained CD73 receptor occupancy in peripheral blood: once every 21 days
T1 construct: endogenous in cells; host or cells: Whole blood of cancer patients (CD73+ CD8 T cells)
T1 sequence (P21589 27-549): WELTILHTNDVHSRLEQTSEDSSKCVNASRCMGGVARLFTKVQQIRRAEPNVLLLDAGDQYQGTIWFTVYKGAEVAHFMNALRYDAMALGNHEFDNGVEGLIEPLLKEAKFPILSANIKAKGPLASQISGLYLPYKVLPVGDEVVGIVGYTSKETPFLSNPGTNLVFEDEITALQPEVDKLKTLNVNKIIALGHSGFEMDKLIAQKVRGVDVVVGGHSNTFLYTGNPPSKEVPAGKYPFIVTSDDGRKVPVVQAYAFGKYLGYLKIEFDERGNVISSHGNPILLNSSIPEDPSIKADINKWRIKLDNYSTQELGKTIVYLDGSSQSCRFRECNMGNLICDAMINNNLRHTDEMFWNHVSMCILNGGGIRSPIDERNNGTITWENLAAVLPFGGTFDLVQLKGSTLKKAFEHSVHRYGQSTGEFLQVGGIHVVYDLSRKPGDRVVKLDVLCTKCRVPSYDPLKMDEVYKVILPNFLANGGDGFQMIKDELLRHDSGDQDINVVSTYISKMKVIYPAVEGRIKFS
Procedure: FIGS. 3A-3D show the pharmacokinetics/pharmacodynamics and CD73 receptor occupancy of CPI-006 after a first infusion in human patients. […] The dotted line marks one-hundred percent occupancy CD73 receptor occupancy. […]
With reference to Table 1, serum samples were collected from patients treated with CPI-006 alone (i.e., monotherapy) and levels of free CPI-006 were measured by ELISA, as shown in FIG. 3A. Whole blood samples from patients treated with CPI-006 alone were fixed and receptor occupancy was measured by flow cytometry gating on CD73+CD8 T cells, as shown in FIG. 3B. As illustrated in FIGS. 3A-3D, receptor exposure to CPI-006 increases and clearance decreases with increasing doses of CPI-006, and CIP-006 is detectable for 21 days after administration of a single dose of 6 mg/kg or higher. […] Other results from the study are described below and in Table 4. BLQ is below limit of quantification. TBD is to be determined.

[1] = system: peripheral B cells, T cells, NK cells, monocytes; assay: Phase 1/1B clinical trial: circulating lymphocyte subsets in whole blood by flow cytometry; type: in vivo, human
Procedure: The highest line at day 10 represents 1 mg/kg, the second highest line at day 10 represents 3 mg/kg, the second lowest line at day 10 represents 6 mg/kg, and the lowest line at day 10 represents 12 mg/kg.
Whole blood was collected pre-treatment or at 0.5 hr or 24 hr after administration of CPI-006 as a single agent (left) or in combination with CPI-444 (right). The absolute number of CD19+ B cells, CD3+ T cells, CD3+CD4+ T cells, CD3+CD8+ T cells, and CD3−CD16+CD56+ NK cells were determined by flow cytometry with quantification beads.
Blood was collected pre-treatment or 0.5 hr after administration of CPI-006. The absolute number of CD19^+ B cells, as well as the percentage of B cells positive for CD73, were determined using flow cytometry.
Whole blood samples from the patients treated with a single dose (i.e., 1 mg/kg, 3 mg/kg, or 6 mg/kg) of CPI-006 monotherapy were analyzed by flow cytometry to further evaluate immunomodulatory effects. Levels of B cells (CD19+CD3−) are reported as a percent of total lymphocytes (gated based on scatter properties), as shown in FIG. 4A. CD73 expression was evaluated with a non-competing anti-CD73 antibody and is reported on B cells (CD19+CD3−) and T cells (CD19−CD3+), as shown in FIG. 4B. Purified B cells from healthy human donors were incubated with CPI-006 or human IgG1 isotype control at concentrations of 0.1 μg/mL, 1 μg/mL, and 10 μg/mL for 30 minutes.

[2] = 3 mg/kg, patients 4-6 (Pancreatic, Pancreatic, Prostate)
[3] = pre-dose versus 30 minutes after administration, FIG. 3D

sustained CD73 receptor occupancy in peripheral blood (CD73; 1 mg/kg and 3 mg/kg doses): not
CD73 receptor occupancy on peripheral B cells (CD73; [2]): 88.12% and 74.57% and 58.19%
sustained CD73 receptor occupancy in peripheral blood (CD73; 6 mg/kg and 12 mg/kg doses): sustained CD73 receptor occupancy
CD73 receptor occupancy on peripheral B cells (CD73; 6 mg/kg, patients 7-9 (Colorectal, Prostate, SCHN)): 97.90% and 98.31% and 101.60%
receptor occupancy dose dependence (CD73; clinical data, 1, 3, and 6 mg/kg): dose proportional
CPI-006 binding site on cell surface CD73 (free CD73) (CD73; [3]): occupied
total cell surface CD73 (CD73; [3]): remains unchanged
B1: CPI-006: humanized CD73 antibody, wherein the light chain is SEQ ID NO:8 and the heavy chain is SEQ ID NO:7; IgG1 Fcγ receptor-deficient (antibody, V domains shown)
VH: QVQLVQSGAEVEKPGASVKVSCKASGYTFTSYWITWVRQAPGQGLEWMGDIYPGSGNTNYNEKFKTRVTITADKSTSTAYMELSSLRSEDTAVYYCAKEGGLTTEDYALDYWGQGTLVTV
VL: EIVLTQSPATLSLSPGERATLSCRASKNVSTSGYSYMHWYQQKPGQAPRLLIYLASNLESGIPPRFSGSGYGTDFTLTINNIESEDAAYYFCQHSRELPFTFGQGTKVEIK
adenosine-mediated immunosuppression (T-cell proliferation, IFN-gamma secretion) (PBMC): relieves adenosine-mediate immunosuppression
% Decrease of Peripheral B cells at C1D1 (0.5 h) [1, 2]: 71.2% and 62.3% and 68.1%
CD73POS B cells levels over time ([1]; 1 to 12 mg/kg, repeated infusions, FIG. 7C): decrease with each infusion of CPI-006, and then partially return to a new steady state level
CD4/CD8 ratios, including CD73NEG subsets ([1]; 0.5 hours after administration, FIGS. 7A-7B): increase
number of circulating cells, all evaluated lymphocyte subsets (B, T, CD4+ T, CD8+ T, NK) ([1]; 0.5 hr post-treatment versus pre-treatment, FIG. 12): decreased
number of circulating CD73+ B cells ([1]; 0.5 hr post-treatment, FIG. 13): substantially decreased
number of circulating CD73− B cells ([1]; 0.5 hr post-treatment, FIG. 13): either unchanged or modestly decreased
number of circulating B cells ([1]; 24 hr post-treatment, FIG. 12): partial return
number of circulating cells, other cell types (T, NK) ([1]; 24 hr post-treatment, FIG. 12): returned to near baseline levels
HLA-DR expression ([1]; cancer patients receiving 6 mg/kg monotherapy, FIG. 7D): increase in HLA-DR expression, followed by a gradual decrease
B lymphocyte trafficking ([1]; clinical data, FIGS. 4A-4B): transient redistribution of B cells
CD73NEG B cells ([1]; following treatment): No significant changes
